The target in experiment [1] is Elongation factor 2 (EF-2) with glycine to arginine mutation at codon 705, in DPL cells (derived from PER.C6) (human) (UniProt P13639). The experiment is described as follows: cell-based or functional assay.
The target of experiment [2] is Elongation factor 2 (EF-2), wild type, endogenous in PER.C6 and 293 cells (human) (UniProt P13639). Put plainly: cell-based or functional assay.

For the substance “Diphtheria toxin (DT) (from UniProt P00588 33-567) (enzyme)”, in experiment [1], the cell growth in the presence of DT (DPLR1 cells) was 100 pM, the cell survival in the presence of DT (DPLR3 cells) worked out at 10 nM and the resistance of cells to DT (DPL cells) was 1 nM. For the same substance, in experiment [2], the cell death in the presence of DT (293 wt cells) amounted to 100 pM; the cell death in the presence of DT (PER.C6 cells) stood at 100 pM; the cell death within 24 hrs in the presence of DT (PER.C6 and 293 cells) worked out at 10 pM.

The record behind these values is patent publication US7582290.
